Experiments:
FGFR3 = FGFR3 (UniProt P22607); assay: phosphorylation enrichment, bacterial display (enrichment ratio); higher = better substrate or ligand; peptides without Tyr show the background
Fer (mouse) = assay: as above
Fes = Fes (UniProt P07332); assay: as above
MERTK = MERTK (UniProt Q12866); assay: as above
c-Abl (mouse) = assay: as above
Jak2 = Jak2 (UniProt O60674); assay: as above
FGFR1 = FGFR1 (UniProt P11362); assay: as above
EPHB1 = EPHB1 (UniProt P54762); assay: as above
Hck = Hck (UniProt P08631); assay: as above
c-Src = assay: as above
EPHB2 = EPHB2 (UniProt P29323); assay: as above
AncSZ = assay: as above
Fyn = Fyn (UniProt P06241); assay: as above
SHP2-C SH2 = assay: SH2 binding enrichment of the phosphorylated peptide, bacterial display (enrichment ratio); higher = better substrate or ligand; peptides without Tyr show the background
c-Src SH2 = assay: as above
Grb2 SH2 = Grb2 SH2 (UniProt P62993); assay: as above
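Wherever SH2 binding enrichment of the phosphorylated peptide, bacterial display is given: peptide library displayed on the E. coli surface as eCPX fusions, selected cells deep-sequenced, score is each peptide's frequency after selection divided by its frequency in the input.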
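Wherever phosphorylation enrichment, bacterial display is given: 11-residue human phosphosite peptides and single-mutation variants displayed on the E. coli surface, counted by deep sequencing, each peptide's frequency after selection divided by its frequency in the unselected input library; frequency after pTyr selection over input frequency; kinase dosed for 20-30% of maximal phosphorylation in three min.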

Sequence of Hck (P08631 whole entry, looked up): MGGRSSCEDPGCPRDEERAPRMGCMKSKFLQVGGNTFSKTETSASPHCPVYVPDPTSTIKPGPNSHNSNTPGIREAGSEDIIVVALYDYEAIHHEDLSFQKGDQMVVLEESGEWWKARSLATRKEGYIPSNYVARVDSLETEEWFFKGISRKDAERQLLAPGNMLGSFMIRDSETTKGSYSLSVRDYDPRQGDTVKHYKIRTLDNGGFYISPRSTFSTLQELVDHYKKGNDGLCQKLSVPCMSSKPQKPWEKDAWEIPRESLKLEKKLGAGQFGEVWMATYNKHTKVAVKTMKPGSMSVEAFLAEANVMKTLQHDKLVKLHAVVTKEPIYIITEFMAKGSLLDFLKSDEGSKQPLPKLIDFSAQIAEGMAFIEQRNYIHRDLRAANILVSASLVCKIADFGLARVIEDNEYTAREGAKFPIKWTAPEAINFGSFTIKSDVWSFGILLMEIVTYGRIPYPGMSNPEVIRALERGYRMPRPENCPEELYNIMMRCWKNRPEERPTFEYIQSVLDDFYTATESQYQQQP
Sequence of Fes (P07332 whole entry, looked up): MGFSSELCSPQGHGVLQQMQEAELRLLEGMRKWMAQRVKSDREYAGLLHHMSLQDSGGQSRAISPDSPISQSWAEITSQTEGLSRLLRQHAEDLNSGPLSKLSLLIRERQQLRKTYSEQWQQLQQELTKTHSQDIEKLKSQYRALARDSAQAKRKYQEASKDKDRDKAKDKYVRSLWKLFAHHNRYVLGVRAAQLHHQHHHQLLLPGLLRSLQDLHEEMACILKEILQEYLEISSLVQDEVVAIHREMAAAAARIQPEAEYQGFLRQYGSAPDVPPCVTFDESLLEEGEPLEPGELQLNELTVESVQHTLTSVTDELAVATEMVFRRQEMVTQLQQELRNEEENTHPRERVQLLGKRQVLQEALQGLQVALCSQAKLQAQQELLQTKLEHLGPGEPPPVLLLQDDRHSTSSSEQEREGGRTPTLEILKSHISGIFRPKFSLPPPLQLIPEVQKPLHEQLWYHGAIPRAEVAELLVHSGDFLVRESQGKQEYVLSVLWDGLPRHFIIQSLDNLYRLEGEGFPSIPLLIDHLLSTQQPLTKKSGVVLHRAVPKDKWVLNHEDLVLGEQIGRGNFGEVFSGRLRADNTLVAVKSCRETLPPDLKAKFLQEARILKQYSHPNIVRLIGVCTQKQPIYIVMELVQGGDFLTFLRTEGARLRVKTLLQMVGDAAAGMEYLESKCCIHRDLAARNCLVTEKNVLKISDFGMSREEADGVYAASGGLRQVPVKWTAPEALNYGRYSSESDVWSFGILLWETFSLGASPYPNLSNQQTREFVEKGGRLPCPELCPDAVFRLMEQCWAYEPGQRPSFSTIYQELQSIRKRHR
Sequence of Jak2 (O60674 whole entry, looked up): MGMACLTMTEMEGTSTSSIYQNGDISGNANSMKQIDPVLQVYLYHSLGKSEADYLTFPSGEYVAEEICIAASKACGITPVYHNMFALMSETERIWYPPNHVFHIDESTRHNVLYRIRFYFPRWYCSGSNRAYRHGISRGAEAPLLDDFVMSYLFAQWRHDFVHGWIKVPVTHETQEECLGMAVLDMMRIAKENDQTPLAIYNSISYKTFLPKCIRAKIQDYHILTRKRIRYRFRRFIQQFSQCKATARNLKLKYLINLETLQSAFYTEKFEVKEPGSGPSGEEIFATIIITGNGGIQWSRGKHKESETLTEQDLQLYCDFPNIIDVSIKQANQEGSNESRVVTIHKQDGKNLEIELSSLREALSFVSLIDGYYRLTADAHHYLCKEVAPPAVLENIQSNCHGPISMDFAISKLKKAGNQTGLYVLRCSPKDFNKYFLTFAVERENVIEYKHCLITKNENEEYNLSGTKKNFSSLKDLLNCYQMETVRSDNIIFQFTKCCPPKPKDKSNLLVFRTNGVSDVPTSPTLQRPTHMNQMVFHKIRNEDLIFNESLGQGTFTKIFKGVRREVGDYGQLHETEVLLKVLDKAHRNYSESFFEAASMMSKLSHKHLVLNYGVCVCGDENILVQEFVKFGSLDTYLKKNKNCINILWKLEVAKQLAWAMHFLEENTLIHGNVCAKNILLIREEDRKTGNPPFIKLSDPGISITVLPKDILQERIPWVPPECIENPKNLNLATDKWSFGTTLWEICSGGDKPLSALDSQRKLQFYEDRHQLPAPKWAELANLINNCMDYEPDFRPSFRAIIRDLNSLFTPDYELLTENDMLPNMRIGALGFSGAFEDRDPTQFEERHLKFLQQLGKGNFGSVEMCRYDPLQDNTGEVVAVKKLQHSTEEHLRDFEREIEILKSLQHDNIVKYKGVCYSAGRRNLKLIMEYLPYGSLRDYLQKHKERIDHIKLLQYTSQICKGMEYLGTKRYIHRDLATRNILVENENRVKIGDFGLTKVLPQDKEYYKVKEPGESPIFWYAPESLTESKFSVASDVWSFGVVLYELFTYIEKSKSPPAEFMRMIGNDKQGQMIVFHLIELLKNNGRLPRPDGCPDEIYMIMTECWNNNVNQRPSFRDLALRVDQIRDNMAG
Sequence of EPHB1 (P54762 whole entry, looked up): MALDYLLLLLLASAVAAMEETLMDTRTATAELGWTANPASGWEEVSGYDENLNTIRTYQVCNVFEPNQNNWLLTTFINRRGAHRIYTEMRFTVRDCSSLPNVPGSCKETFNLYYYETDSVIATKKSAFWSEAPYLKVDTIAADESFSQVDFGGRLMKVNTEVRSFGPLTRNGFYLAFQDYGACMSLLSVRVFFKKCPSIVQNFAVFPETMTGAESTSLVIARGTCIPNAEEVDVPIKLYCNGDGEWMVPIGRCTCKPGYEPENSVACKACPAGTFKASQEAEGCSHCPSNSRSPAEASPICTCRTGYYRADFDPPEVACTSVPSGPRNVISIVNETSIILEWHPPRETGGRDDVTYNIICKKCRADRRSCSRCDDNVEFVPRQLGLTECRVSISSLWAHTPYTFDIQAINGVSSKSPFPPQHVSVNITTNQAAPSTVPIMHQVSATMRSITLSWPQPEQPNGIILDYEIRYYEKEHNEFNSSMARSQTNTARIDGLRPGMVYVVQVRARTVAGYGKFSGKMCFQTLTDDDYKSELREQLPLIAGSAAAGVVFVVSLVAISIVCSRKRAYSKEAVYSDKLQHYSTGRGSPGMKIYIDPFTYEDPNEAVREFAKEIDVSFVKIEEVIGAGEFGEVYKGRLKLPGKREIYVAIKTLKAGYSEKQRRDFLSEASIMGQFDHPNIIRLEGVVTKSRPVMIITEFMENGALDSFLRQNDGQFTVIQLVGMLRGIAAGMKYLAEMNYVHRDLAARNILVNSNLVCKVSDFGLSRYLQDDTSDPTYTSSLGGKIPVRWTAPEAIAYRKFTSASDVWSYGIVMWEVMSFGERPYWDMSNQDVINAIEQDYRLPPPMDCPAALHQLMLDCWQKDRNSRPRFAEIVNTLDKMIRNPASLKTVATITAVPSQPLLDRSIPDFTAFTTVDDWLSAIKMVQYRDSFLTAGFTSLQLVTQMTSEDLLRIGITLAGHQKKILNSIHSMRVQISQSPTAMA
Sequence of Grb2 SH2 (P62993 whole entry, looked up, the tested form may be a part): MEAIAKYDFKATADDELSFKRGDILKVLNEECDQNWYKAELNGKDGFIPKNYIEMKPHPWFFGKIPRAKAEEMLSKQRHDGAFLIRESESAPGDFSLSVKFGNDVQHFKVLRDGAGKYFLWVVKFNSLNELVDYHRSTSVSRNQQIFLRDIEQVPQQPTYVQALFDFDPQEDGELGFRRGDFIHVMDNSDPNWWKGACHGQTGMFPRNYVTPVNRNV
Sequence of Fyn (P06241 whole entry, looked up): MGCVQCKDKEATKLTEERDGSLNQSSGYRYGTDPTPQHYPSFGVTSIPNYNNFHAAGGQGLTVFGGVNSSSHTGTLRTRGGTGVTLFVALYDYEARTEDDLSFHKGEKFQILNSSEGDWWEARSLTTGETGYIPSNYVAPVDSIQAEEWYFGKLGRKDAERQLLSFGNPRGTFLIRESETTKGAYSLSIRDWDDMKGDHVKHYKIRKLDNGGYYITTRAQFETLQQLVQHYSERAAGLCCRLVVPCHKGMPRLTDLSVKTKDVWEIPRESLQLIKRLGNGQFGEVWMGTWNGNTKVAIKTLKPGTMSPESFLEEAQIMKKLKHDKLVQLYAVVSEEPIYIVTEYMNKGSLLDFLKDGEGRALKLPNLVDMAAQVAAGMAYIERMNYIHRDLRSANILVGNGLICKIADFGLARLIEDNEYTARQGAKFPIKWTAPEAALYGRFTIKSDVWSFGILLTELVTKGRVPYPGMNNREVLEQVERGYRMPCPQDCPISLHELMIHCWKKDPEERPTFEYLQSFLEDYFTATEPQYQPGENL
Sequence of FGFR1 (P11362 whole entry, looked up): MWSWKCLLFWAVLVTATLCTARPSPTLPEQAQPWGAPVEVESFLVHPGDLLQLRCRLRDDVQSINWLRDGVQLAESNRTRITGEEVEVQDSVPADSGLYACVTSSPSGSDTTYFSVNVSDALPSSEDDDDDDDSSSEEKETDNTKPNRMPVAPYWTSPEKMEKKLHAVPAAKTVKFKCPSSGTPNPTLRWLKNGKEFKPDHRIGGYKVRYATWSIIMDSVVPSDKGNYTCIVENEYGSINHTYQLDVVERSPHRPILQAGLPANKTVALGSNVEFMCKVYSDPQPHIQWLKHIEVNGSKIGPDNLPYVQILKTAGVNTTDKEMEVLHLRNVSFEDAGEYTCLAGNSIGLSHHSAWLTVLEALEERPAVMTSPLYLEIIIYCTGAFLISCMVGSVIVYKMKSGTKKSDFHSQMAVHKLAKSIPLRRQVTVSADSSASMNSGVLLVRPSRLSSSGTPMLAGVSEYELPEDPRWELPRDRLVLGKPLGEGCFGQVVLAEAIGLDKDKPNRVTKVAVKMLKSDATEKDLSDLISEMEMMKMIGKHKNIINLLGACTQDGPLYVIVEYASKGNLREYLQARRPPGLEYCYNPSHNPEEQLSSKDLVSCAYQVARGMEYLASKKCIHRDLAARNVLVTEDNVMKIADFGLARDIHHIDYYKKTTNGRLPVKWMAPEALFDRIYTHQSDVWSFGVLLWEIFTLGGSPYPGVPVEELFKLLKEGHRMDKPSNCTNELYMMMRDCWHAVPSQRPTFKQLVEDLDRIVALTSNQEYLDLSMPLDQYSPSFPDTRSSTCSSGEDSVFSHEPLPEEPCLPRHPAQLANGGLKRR

Sequence | phosphorylation enrichment (FGFR3) | phosphorylation enrichment (Fer (mouse)) | phosphorylation enrichment (Fes) | phosphorylation enrichment (MERTK) | phosphorylation enrichment (c-Abl (mouse)) | phosphorylation enrichment (Jak2) | phosphorylation enrichment (FGFR1) | phosphorylation enrichment (EPHB1) | phosphorylation enrichment (Hck) | phosphorylation enrichment (c-Src) | phosphorylation enrichment (EPHB2) | phosphorylation enrichment (AncSZ) | phosphorylation enrichment (Fyn) | SH2 binding enrichment (SHP2-C SH2) | SH2 binding enrichment (c-Src SH2) | SH2 binding enrichment (Grb2 SH2)
LAGRYYALKSM [CKB_Y174] | 0.957 | 0.545 | 0.852 | 3.22 | 0.594 | 1.29 | 1.45 | 0.541 | 0.783 | 0.67 | 0.417 | 1.24 | 0.668 | 2.14 | 1.67 | 1.21
LAIELYVVVCK [RHO_Y136_R135L] | 1.64 | 1.17 | 3.23 | 0.597 | 2.59 | 2.07 | 1.4 | 2.12 | 0.861 | 1.11 | 2.06 | 2.14 | 1.14 | 0.67 | 0.458 | 0.976
LANNEYFFQVC | 9.36 | 0.939 | 2.72 | 0.933 | 1.74 | 2.29 | 12.8 | 1.55 | 0.932 | 1.35 | 0.804 | 3.75 | 1.4 | 0.888 | 0.611 | 0.599
LARDMHDKEFF [MET_Y1230_Y1230H_YF] | 0.661 | 0.362 | 0.864 | 0.907 | 0.91 | 1.15 | 0.625 | 0.723 | 0.812 | 0.671 | 0.757 | 1.08 | 0.821 | 0.668 | 0.423 | 0.884
LARNMYDKEYY [MET_Y1230_D1228N] | 0.569 | 0.468 | 0.872 | 0.358 | 0.565 | 0.84 | 0.631 | 0.482 | 0.605 | 0.611 | 0.546 | 1.13 | 0.441 | 0.673 | 0.71 | 0.843
LAVNPYGPPDP | 0.493 | 0.44 | 0.692 | 0.594 | 0.726 | 0.709 | 0.436 | 0.461 | 0.516 | 0.523 | 0.553 | 0.796 | 0.454 | 0.7 | 0.528 | 0.934
LDFPEYDGVDR [CASQ1_Y43] | 1.37 | 0.719 | 2.01 | 0.556 | 1.48 | 2 | 0.59 | 0.633 | 1.11 | 1.5 | 0.865 | 2.6 | 0.75 | 0.667 | 0.625 | 1.57
LDLSYYHTSSS [EMD_Y182_P183H] | 1.22 | 0.451 | 0.977 | 0.634 | 0.672 | 1.51 | 1.11 | 0.516 | 0.452 | 0.676 | 0.614 | 0.929 | 0.509 | 1.36 | 1.19 | 1.26
LDYNEYFRGLN [HPRT1_Y198_D201G] | 1.85 | 1.06 | 1.95 | 0.733 | 0.847 | 3.42 | 2.77 | 1.28 | 2.6 | 0.892 | 1.37 | 2.67 | 1.6 | 0.812 | 0.445 | 0.865
LENSTYQYIHV [CRB1_Y760_R764H] | 5.6 | 17.8 | 1.68 | 7.77 | 1.01 | 1.18 | 9.48 | 11.2 | 7.21 | 3.15 | 5.17 | 2.84 | 3.32 | 1.06 | 1.45 | 1.05
LEQRPYRRGSE [KCNJ12_Y427_E430G] | 0.511 | 0.447 | 0.683 | 0.442 | 0.594 | 0.576 | 0.365 | 0.348 | 0.523 | 0.399 | 0.478 | 0.651 | 0.424 | 0.733 | 0.419 | 0.891
LFHENYNAGTF [CFI_Y421_I416L_YF] | 0.941 | 0.822 | 1.11 | 0.654 | 0.597 | 1.07 | 0.634 | 0.848 | 0.596 | 0.649 | 1.23 | 0.928 | 0.683 | 0.856 | 0.539 | 0.72
LFMGDYVDRGY [PPP2CA_Y86] | 1.02 | 0.612 | 1.47 | 0.701 | 0.982 | 1.41 | 1.46 | 0.983 | 1.01 | 0.8 | 0.977 | 1.6 | 0.699 | 0.927 | 0.711 | 0.696
LFPANYVAPMT [GRAP2_Y324] | 0.617 | 0.418 | 0.91 | 0.551 | 0.713 | 0.649 | 0.535 | 3.55 | 0.551 | 0.397 | 1.31 | 0.827 | 0.446 | 0.835 | 0.663 | 0.828
LFSGDCFRIQG [DDR2_Y740_Y740C_YF] | 0.693 | 0.468 | 1.15 | 0.425 | 0.84 | 0.764 | 0.516 | 0.554 | 0.486 | 0.459 | 0.602 | 0.931 | 0.472 | 0.524 | 0.553 | 0.844
LFSLGYHQSRW [GANAB_Y396] | 1.02 | 0.584 | 1.16 | 0.649 | 0.638 | 0.767 | 0.567 | 0.647 | 0.855 | 0.454 | 0.724 | 1.04 | 0.726 | 0.828 | 0.717 | 1.15
LGGAMYFLEAD [PKHD1_Y452_E457D_YF] | 0.77 | 0.517 | 1.09 | 0.536 | 0.682 | 1.03 | 0.461 | 0.535 | 0.581 | 0.772 | 0.701 | 1.01 | 0.717 | 0.698 | 0.667 | 0.768

Sequence | phosphorylation enrichment (FGFR3) | phosphorylation enrichment (Fer (mouse)) | phosphorylation enrichment (Fes) | phosphorylation enrichment (MERTK) | phosphorylation enrichment (c-Abl (mouse)) | phosphorylation enrichment (Jak2) | phosphorylation enrichment (FGFR1) | phosphorylation enrichment (EPHB1) | phosphorylation enrichment (Hck) | phosphorylation enrichment (c-Src) | phosphorylation enrichment (EPHB2) | phosphorylation enrichment (AncSZ) | phosphorylation enrichment (Fyn) | SH2 binding enrichment (SHP2-C SH2) | SH2 binding enrichment (c-Src SH2) | SH2 binding enrichment (Grb2 SH2)
LGGAMYYLEAD [PKHD1_Y452_E457D] | 1.6 | 0.664 | 1.48 | 1.62 | 0.956 | 1.19 | 1.36 | 0.839 | 1.08 | 1.86 | 0.672 | 1.39 | 1.7 | 0.762 | 1.1 | 0.83
LGLDECLDKLK [FMNL2_Y352_Y352C] | 1.54 | 1.31 | 1.85 | 1.09 | 1.7 | 2.01 | 1.28 | 1.05 | 1.31 | 0.92 | 1.37 | 1.91 | 1.04 | 0.492 | 0.75 | 0.934
LGPSDYFGEIA [PRKAR1A_Y323] | 1.12 | 0.579 | 1.14 | 0.605 | 0.746 | 1.08 | 1.39 | 0.696 | 0.602 | 0.68 | 0.727 | 1.76 | 0.705 | 0.599 | 0.51 | 0.878
LGRKLYSIAAP [ABHD12_Y345] | 1.12 | 0.952 | 1.13 | 1.04 | 0.892 | 2.38 | 0.543 | 0.664 | 0.73 | 0.647 | 1.04 | 1.3 | 0.737 | 0.583 | 0.593 | 0.788
LGRKLYSIATP [ABHD12_Y345_A349T] | 0.635 | 0.698 | 1.18 | 1.29 | 1.07 | 1.3 | 0.612 | 0.576 | 0.672 | 0.698 | 0.471 | 0.773 | 0.413 | 0.621 | 0.616 | 1.11
LGSNTYPFLLT [SAG_Y120] | 1.4 | 0.793 | 1.22 | 0.589 | 0.938 | 0.785 | 1.11 | 0.77 | 0.54 | 0.543 | 0.655 | 1.26 | 0.505 | 0.804 | 0.487 | 0.695
LINPKYSVEEE [PCDH19_Y27_L25P] | 1.36 | 0.977 | 2.28 | 0.836 | 1.39 | 1.65 | 0.753 | 1.06 | 0.55 | 0.608 | 0.986 | 1.8 | 0.797 | 0.548 | 0.786 | 1.92
LKEIHYPPFTD [ALDH3B2_Y362_YF] | 0.555 | 0.413 | 0.9 | 0.329 | 0.559 | 0.659 | 0.474 | 0.425 | 0.437 | 0.401 | 0.541 | 0.819 | 0.437 | 0.644 | 0.505 | 0.922
LKEIRYPPFTD [ALDH3B2_Y362_H361R_YF] | 1.07 | 1.09 | 2.01 | 0.725 | 1.06 | 2.05 | 1.09 | 0.883 | 0.63 | 0.919 | 0.731 | 2.71 | 0.926 | 0.68 | 0.605 | 0.798
LKGQVDILGRE [ASS1_Y359_Y359D] | 0.638 | 0.598 | 1.07 | 0.663 | 0.658 | 1.26 | 0.578 | 0.539 | 0.575 | 0.764 | 0.696 | 0.803 | 0.559 | 0.582 | 0.595 | 1.01
LKMLVYMDMSK [LRRC7_Y234_L235M] | 0.984 | 0.842 | 2.25 | 0.689 | 1.23 | 1.85 | 1.02 | 1.79 | 0.802 | 0.872 | 0.804 | 1.45 | 0.807 | 0.742 | 0.661 | 0.849
LKTNCYNNGKD [DNMT3B_Y404] | 1.12 | 0.68 | 1.21 | 0.601 | 3.04 | 1.24 | 0.685 | 1.09 | 0.879 | 0.572 | 0.818 | 1.12 | 0.649 | 0.694 | 0.429 | 0.764
LLANAYIFDVQ [L1CAM_Y418_V421D_YF] | 1.17 | 0.755 | 1.84 | 0.718 | 0.896 | 1.73 | 0.874 | 0.933 | 0.598 | 1.03 | 0.838 | 1.73 | 1.09 | 0.99 | 0.913 | 1.15
LLKAGYHGVLR [TTPA_Y100] | 0.679 | 0.671 | 1.35 | 0.631 | 0.926 | 0.903 | 0.646 | 0.686 | 0.453 | 0.906 | 0.562 | 0.964 | 0.693 | 1.25 | 1.05 | 1.45
LLREWYVQDPY [SIX3_Y225_L226V] | 0.771 | 0.566 | 1.05 | 0.44 | 0.674 | 0.798 | 0.597 | 0.598 | 0.328 | 0.641 | 0.675 | 1.18 | 0.531 | 0.856 | 1.36 | 1.05
LLVVLNKFRCF [PSEN1_Y154_Y154N_YF] | 1.18 | 0.951 | 1.88 | 0.795 | 2.08 | 1.66 | 1.1 | 0.951 | 0.837 | 1.05 | 1.11 | 1.82 | 1.02 | 1.34 | 1.35 | 1.7
